Test results published in article PMC8179113 (Cell, 2021).

Target: SARS-CoV-2 spike receptor binding domain (SARS-CoV-2, UniProt P0DTC2)
Test: cryo-EM structure

Row | Binder | binding result
1 | REGN10989 Fab (Fab, V domains shown) VH: QVQLVQSGAEVKKPGASVKVSCKASGYIFTGYYMHWVRQAPGQGLEWMGWINPNSGGANYAQKFQGRVTLTRDTSITTVYMELSRLRFDDTAVYYCARGSRYDWNQNNWFDPWGQGTLVTVSS VL: QSALTQPASVSGSPGQSITISCTGTSSDVGTYNYVSWYQQHPGKAPKLMIFDVSNRPSGVSDRFSGSKSGNTASLTISGLQAEDEADYYCSSFTTSSTVVFGGGTKLTVL | binds
2 | REGN10985 Fab (Fab, V domains shown) VH: EVQLVESGGGLVQPGRSLRLSCAASGFTFDDYAMHWVRQAPGKGLEWVSGISWNRGSIGYADSVKGRFTISRDNAKNSLYLQMSSLRAEDTALYYCAKDGERWDSVVVPSARNGMDVWGQGTTVTVSS VL: QSVLTQPPSVSGAPGQRVTISCTGSSSNIGAGYDVHWYQQLPGTAPKLLIYGNSNRPSGVPDRFSGSKSGTSASLAITGLQAEDEADYYCQSYDSSLSGSYVFGTGTKVTVL | binds
